The text below walks through data of paper PMC8281026, “Peptide Based Inhibitors of Protein Binding to the Mitogen-Activated Protein Kinase Docking Groove” (Frontiers in Molecular Biosciences, 2021).

As a reminder, the Kd is the free concentration of one partner at which half of the binding sites on the other are occupied at equilibrium, for simple one-to-one binding. A lower Kd goes with higher affinity.

This assay deals with ERK2, P28482. The assay is described as follows: fluorescence polarisation; competitive: complex of the MAPK with 50 nM Cf-RHDF at 60-80% complex formation titrated with increasing unlabeled peptide; 20 mM Tris pH 8.0, 100 mM NaCl, 0.05% Brij35, 2 mM TCEP; 384-well black plates; triplicates; constants are called Kd in Table 1 and Ki in the ….
ERK2, P28482, sequence (P28482 whole entry): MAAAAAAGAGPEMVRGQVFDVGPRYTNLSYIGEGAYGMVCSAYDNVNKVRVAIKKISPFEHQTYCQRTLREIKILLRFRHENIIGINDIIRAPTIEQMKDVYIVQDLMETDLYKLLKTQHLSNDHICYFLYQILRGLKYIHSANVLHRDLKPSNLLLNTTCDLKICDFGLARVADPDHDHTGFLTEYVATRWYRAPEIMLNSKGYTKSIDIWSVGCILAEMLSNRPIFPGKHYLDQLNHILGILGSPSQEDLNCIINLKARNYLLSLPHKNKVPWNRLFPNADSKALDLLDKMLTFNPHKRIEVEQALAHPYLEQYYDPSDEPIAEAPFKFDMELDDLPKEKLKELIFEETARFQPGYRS

B1: octaarginine conjugate of the native RHDF1 sequence (peptide 2) (peptide)
chain 1: SLQRKKPPWLKLDIPSC
chain 2: RRRRRRRR
modifications: not checked
For the molecule B1, the dissociation constant Kd was determined as 600 nM.
